Test results reported in paper PMC9136605 (Acta Pharmaceutica Sinica. B, 2021).

Target: the molecule itself
Experiment: crystal structure

B1: human LDHC L56E/I332Q double mutant (LDHC-mutant), recombinant with C-terminal His6-tag (enzyme)
chain: not shown
How did the “stoichiometry N” value turn out when B1 was run?
The value was 4.
